Kd data for 1 substance are collected here from doi:10.1101/2025.06.18.660434.

In this assay the target is GST-fusion RACK1 (UniProt P63244). The experiment in a line: pull-down.

For orientation: Kd means a measure of binding affinity in units of concentration. Higher therefore signals lower affinity. “His-tagged PKAcα (from UniProt P17612 1-351) (enzyme)” gave a Kd of 32 nM.
